These results are taken from patent US20250051465A1.

Experiment [1] concerns the target full length human LEPR on cells (human) (UniProt P48357). In words: FACS, HEK293/Stat3-luc/hLEPR-FL, 70 nM Ab. (A flow cytometer gives signals particle by particle.)
In experiment [2] the target is Macaca fascicularis LEPR extracellular domain expressed with a C-terminal myc-myc-hexahistidine tag (mfLEPR.mmh) (Macaca fascicularis). Put plainly: SPR, captured mAb, 25C. (In SPR one partner is held on a chip, and binding of the other changes the refractive index at the surface.)
Experiment [3] concerns the target extracellular domain of human LEPR, GPI-anchored on HEK293 cells (HEK293/hLEPR-GPI) (human). In words: FACS, HEK293/hLEPR-GPI, 70 nM Ab.
The target is the same in experiment [4]. In words: FACS, HEK293/hLEPR-GPI, no added Leptin.
Experiment [5] has the same target. Put plainly: FACS, HEK293/hLEPR-GPI, 1 µM Leptin.
Experiment [6] has the same target. In words: FACS, HEK293/hLEPR-GPI.
In experiment [7] the target is full length human LEPR on cells (human) (UniProt P48357). Put plainly: FACS, HEK293/Stat3-luc/hLEPR-FL.
Sequence of full length human LEPR on cells (human) (P48357 22-1165): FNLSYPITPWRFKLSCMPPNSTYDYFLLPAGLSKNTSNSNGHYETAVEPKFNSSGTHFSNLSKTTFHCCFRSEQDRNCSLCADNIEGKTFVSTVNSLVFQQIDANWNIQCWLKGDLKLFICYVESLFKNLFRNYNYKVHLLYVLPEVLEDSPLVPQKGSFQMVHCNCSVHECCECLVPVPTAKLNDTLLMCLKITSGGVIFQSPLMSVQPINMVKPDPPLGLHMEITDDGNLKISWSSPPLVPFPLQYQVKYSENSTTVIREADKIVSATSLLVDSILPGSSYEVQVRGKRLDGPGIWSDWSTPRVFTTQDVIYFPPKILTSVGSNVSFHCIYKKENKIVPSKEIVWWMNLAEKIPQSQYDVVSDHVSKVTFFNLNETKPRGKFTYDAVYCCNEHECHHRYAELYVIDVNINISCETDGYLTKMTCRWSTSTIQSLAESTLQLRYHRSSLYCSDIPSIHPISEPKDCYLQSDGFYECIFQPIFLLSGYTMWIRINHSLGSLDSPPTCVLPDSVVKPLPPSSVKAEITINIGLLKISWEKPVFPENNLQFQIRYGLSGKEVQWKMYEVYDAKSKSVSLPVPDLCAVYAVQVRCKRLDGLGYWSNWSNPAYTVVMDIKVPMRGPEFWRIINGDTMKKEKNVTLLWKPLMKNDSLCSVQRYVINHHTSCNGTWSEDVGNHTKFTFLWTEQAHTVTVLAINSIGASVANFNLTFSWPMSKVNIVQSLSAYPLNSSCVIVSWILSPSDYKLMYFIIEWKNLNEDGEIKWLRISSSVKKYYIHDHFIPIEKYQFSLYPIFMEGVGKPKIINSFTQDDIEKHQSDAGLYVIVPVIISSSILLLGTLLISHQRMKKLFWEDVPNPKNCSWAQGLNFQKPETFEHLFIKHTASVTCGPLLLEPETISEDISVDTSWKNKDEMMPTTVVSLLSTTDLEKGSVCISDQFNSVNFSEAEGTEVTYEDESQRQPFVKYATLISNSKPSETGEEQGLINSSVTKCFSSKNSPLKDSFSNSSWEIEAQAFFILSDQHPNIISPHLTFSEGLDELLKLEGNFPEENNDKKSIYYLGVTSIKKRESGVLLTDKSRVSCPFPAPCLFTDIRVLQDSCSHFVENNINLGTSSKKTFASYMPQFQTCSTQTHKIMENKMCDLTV

Sequence of Macaca fascicularis LEPR extracellular domain expressed with a C-terminal myc-myc-hexahistidine tag (mfLEPR.mmh) (Macaca fascicularis) (Q9MYL0 other isoform, or with tags, fused parts or gaps): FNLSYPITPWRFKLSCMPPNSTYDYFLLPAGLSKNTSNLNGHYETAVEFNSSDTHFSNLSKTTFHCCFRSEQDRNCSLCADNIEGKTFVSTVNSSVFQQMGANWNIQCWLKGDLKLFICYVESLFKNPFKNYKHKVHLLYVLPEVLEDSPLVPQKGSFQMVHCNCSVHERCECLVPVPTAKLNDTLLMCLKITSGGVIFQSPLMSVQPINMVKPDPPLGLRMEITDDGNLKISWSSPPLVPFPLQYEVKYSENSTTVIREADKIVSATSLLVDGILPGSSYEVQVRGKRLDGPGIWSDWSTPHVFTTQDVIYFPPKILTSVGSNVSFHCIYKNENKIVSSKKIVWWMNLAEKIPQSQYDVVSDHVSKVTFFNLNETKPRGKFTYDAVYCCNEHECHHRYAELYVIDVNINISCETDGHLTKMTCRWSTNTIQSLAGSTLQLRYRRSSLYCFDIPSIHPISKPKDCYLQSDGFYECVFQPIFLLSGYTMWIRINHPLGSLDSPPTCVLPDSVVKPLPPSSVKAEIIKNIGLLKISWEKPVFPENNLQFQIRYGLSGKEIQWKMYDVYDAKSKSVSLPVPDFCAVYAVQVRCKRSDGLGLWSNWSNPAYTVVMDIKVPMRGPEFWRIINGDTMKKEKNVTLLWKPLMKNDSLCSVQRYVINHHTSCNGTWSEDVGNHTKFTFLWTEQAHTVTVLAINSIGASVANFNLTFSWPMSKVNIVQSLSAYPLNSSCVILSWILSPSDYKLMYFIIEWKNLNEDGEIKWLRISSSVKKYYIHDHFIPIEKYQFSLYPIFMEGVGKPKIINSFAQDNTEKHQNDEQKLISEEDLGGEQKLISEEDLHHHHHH

Turning to Isotype Control mAb (antibody), the Binding Ratio (fold over unstained) in experiment [1] and in experiment [3] was 2 each time. This substance registered a 100 nM mfLEP.MMH Bound (RU) in experiment [2] of 0 RU.

Take “Alexa Fluor-647 conjugated secondary antibody (Jackson ImmunoResearch Laboratories Inc., #109-547-003)”: the Binding Ratio (fold over unstained) worked out at 3 in experiment [4], 3 in experiment [5], 1 in experiment [6] and 1 in experiment [7].
